Data from paper PMC12485133, “An active allosteric mechanism in ASAP1-mediated Arf1 GTP hydrolysis redefines PH domain function” (Nature Communications, 2025).

Legend:
[1] = molecular target: T1, ASAP1 ZA domain (Arf GAP domain and ankyrin repeats), residues 447-724 of ASAP1 (UniProt Q9QWY8 447-724); assay: intermolecular PRE NMR; Cys159-MTSL myrArf1 (non-hydrolysable GTP analog), alone or in complex with wt PH, on nanodiscs; 100 μM Arf or Arf:PH and 100 μM isotopically labeled ZA; conditions: both partners purified
T1 construct: Mouse is stated only for the PH domain constructs; the same residue numbers are used; Isotopically labelled in the PRE experiment; also called ^ΔPHZA; isolated ZA domain
T1 sequence (looked up): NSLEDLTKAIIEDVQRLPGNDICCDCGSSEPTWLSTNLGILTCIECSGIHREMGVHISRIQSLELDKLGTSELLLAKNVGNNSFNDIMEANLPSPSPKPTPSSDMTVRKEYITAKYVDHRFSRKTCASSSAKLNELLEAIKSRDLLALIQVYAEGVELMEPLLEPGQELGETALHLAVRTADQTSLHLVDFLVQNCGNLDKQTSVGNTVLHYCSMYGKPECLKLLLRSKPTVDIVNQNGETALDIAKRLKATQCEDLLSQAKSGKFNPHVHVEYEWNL

[2] = molecular target: T2, N-myristoylated human Arf1 bound to GTPγS, anchored on nanodiscs (myrArf1·GTPγS) (human, UniProt P84077 1-181, N-terminal myristoyl); assay: cell-based or functional assay
T2 sequence (P84077 whole entry): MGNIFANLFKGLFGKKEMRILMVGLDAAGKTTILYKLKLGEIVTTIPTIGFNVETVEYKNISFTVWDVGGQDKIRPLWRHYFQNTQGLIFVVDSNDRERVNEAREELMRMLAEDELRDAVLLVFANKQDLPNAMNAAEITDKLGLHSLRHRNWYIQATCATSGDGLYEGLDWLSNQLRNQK

[3] = molecular target: T2, N-myristoylated human Arf1 bound to …; assay: not stated; binding of PH variants and Arf variants compared with wild type (Fig. SI8 and Table SI1); the method is not given; conditions: both partners purified
[4] = molecular target: T3, myrArf1 Glu54Ala (human, UniProt P84077 1-181, Glu54Ala, N-terminal myristoyl); assay: cell-based or functional assay
T3 sequence (P84077 whole entry E54A): as the sequence (P84077 whole entry) above, with E54A counted along it

[5] = molecular target: T3, myrArf1 Glu54Ala; assay: not stated; binding of PH variants and Arf variants compared with wild type (Fig. SI8 and Table SI1); the method is not given; conditions: both partners purified
[6] = molecular target: T4, MTSL-tagged myrArf1 K38C (Cys159 mutated to Ala), GTPγS, on nanodiscs (human, UniProt P84077 1-181, Cys159 mutated to Ala | K38C, N-terminal myristoyl; MTSL nitroxide spin label on Cys38 via a disulfide bond); assay: intermolecular PRE NMR; 60 μM protiated MTSL-labelled myrArf1 variants on nanodiscs, 50 μM methyl-labelled ASAP1 PH, 25 °C; paramagnetic against ascorbate-reduced sample; conditions: both partners purified
T4 construct: human Arf1, Uniprot P84077, mono-cysteine variant; source: E. coli BL21 Star (DE3), co-expressed with yeast NMT, purified; spin-labelled on nanodiscs
T4 sequence (P84077 other isoform, or with tags, fused parts or gaps with the stated changes): as the sequence (P84077 whole entry) above, with K38C, C159A counted along it

[7] = molecular target: T5, MTSL-tagged myrArf1 with Lys73 replaced by Cys (Cys159 mutated to Ala), GTPγS, on nanodiscs (human, UniProt P84077 1-181, Cys159 mutated to Ala | Lys73 replaced with Cys, N-terminal myristoyl; MTSL nitroxide spin label on Cys73 via a disulfide bond); assay: as above; conditions: both partners purified
T5 construct: human Arf1, Uniprot P84077, mono-cysteine variant; also called spin-labeled myrArf1 variant (Lys73 to Cys); source: E. coli BL21 Star (DE3), co-expressed with yeast NMT, purified; spin-labelled on nanodiscs
T5 sequence (P84077 other isoform, or with tags, fused parts or gaps with the stated changes): as the sequence (P84077 whole entry) above, with K73C, C159A counted along it

B1: Cys159-MTSL tagged myrArf1 bound to a non-hydrolysable GTP analog, on nanodiscs (natural protein)
chain: not shown
modifications: N-terminal myristoyl; MTSL nitroxide spin label on Cys159
notes: human Arf1, Uniprot P84077, native Cys159 spin-labelled; source: E. coli BL21 Star (DE3), co-expressed with yeast NMT, purified; spin-labelled on nanodiscs
[1]
  Kd: 100 to 1000 µM

B2: ΔN14 ASAP1 PH domain, [339-451]ASAP1 (domain or fragment, mouse, UniProt Q9QWY8 339-451, looked up)
chain: GSEKKGFLLKKSDGIRKVWQRRKCAVKNGILTISHATSNRQPAKLNLLTCQVKPNAEDKKSFDLISHNRTYHFQAEDEQDYIAWISVLTNSKEEALTMAFRGEQSTGENSLED
notes: mouse ASAP1, PH domain with shortened N-terminal extension, residues 339-451; tied by counting 14 residues from 325; also called ^ΔN14PH; source: E. coli BL21 Star (DE3) or BL21 (DE3), purified (HiTrap SP, SEC)
[2]
  fold decrease in GAP activity compared with PH: 100 fold
[3]
  fold weaker binding than wt PH: 2 fold

B3: wild-type ASAP1 PH domain, [325-451]ASAP1 (domain or fragment, mouse, UniProt Q9QWY8 325-451, looked up)
chain: GGYSMHQLQGNKEYGSEKKGFLLKKSDGIRKVWQRRKCAVKNGILTISHATSNRQPAKLNLLTCQVKPNAEDKKSFDLISHNRTYHFQAEDEQDYIAWISVLTNSKEEALTMAFRGEQSTGENSLED
notes: mouse ASAP1, PH domain with its N-terminal extension, residues 325-451; also called wt PH
[4]
  fold decrease in GAP activity on Arf1 Glu54Ala compared with wild type (C50 of PZA, Fig. 7C): 70 fold
[5]
  fold reduction of binding against wild type: 2 fold
[6]
  binding result: binds
[7]
  binding result: binds
